Experimental data reported in patent US20240400638A1, “COMBINATION OF RELAXIN AND VASOPRESSIN ANALOGUES FOR TREATMENT OF RENAL DISORDERS OR CONDITIONS” (River 2 Renal Corp., priority 2021, published 2024).
Numbered stars: 1 amine (or outer) side, 2 acyl side, 3 side chain; on linkers, the order of the positions; unused ones are H or OH. Square brackets hold non-standard residues; d marks the D form. Side chains are listed from the residue outwards. * marks the point of attachment. TTDS = 4-[3-[2-[2-(3-aminopropoxy)ethoxy]ethoxy]propylamino]-4-oxo-butanoyl; γGlu = O=C(O)[C@H](CCC(=O)[*:2])N[*:1]; Stearoyl = CCCCCCCCCCCCCCCCCC(=O)*; Palmitoyl = CCCCCCCCCCCCCCCC(=O)*; αMeK = C[C@](N)(CCCCN)C(=O)O; hLys = NCCCCC[C@H](N)C(=O)O; AEEA = NCCOCCOCC(=O)O; Aib = CC(C)(N)C(=O)O

T1: human RXFP1 (human, UniProt Q9HBX9 1-757)
T1 sequence (looked up): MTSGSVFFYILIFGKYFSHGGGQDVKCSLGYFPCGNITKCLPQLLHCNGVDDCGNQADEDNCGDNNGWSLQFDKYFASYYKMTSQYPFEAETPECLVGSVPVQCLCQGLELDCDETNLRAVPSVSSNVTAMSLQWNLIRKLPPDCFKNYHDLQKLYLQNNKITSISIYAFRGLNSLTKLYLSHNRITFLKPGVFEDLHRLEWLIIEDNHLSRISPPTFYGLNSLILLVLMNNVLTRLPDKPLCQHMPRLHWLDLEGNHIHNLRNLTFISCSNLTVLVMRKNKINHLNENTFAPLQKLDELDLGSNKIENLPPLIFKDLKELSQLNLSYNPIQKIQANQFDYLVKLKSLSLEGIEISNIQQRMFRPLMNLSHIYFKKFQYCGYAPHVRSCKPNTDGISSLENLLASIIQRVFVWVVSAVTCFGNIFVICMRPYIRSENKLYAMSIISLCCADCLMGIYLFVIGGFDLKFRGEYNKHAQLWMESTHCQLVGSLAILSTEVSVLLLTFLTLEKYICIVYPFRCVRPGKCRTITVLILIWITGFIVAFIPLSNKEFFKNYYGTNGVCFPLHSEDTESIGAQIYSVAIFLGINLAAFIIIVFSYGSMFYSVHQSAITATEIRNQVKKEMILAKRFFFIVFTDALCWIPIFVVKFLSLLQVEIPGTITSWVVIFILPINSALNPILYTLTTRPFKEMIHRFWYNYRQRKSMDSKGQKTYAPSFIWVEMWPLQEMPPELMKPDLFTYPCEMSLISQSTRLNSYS


Molecular target: T1, human RXFP1
Assay: cell-based or functional assay

Binder	EC50 (nM), OVCAR 5 cells (cAMP)	EMax, OVCAR 5 cells (cAMP)
Ac-LEGREKVRAK(Ac)I[Aib][Aib]EGK([TTDS-TTDS-γGlu-γGlu-γGlu-Stearoyl])STFS[αMeK]RAK(Ac)-NH2 [Relaxin peptide analogue of SEQ ID NO: 34]	0.14 nM	90%
Ac-LEGRERVRAK(Ac)I[Aib][Aib]EGK([TTDS-TTDS-TTDS-γGlu-γGlu-γGlu-Palmitoyl])STFS[αMeK]RAK(Ac)-NH2 [Relaxin peptide analogue of SEQ ID NO: 27]	1.8 nM	98%
Ac-LEGRERVRAK(Ac)I[Aib][Aib]EGK([TTDS-TTDS-TTDS-γGlu-γGlu-γGlu-Palmitoyl])STWS[Aib]RRK(Ac)-NH2 [Relaxin peptide analogue of SEQ ID NO: 31]	0.19 nM	94%
Ac-LEGREKVRAK(Ac)I[Aib][Aib]EGK([TTDS-TTDS-TTDS-γGlu-γGlu-γGlu-Palmitoyl])STFS[αMeK]RAK(Ac)-NH2 [Relaxin peptide analogue of SEQ ID NO: 3]	0.34 nM	97%
Ac-LEGREKVRAK(Ac)I[Aib][Aib]EGK([TTDS-TTDS-TTDS-γGlu-γGlu-γGlu-Palmitoyl])STFS[dK]RAK(Ac)-NH2 [Relaxin peptide analogue of SEQ ID NO: 36]	3.6 nM	93%
Ac-LEGREKVRAK(Ac)I[Aib][Aib]EGK([TTDS-TTDS-TTDS-γGlu-γGlu-γGlu-Stearoyl])STWS[αMeK]RAK(Ac)-NH2 [Relaxin peptide analogue of SEQ ID NO: 30]	0.21 nM	89%
Ac-LEGREFVRAK(Ac)I[Aib][Aib]EGK([TTDS-TTDS-TTDS-γGlu-γGlu-γGlu-Palmitoyl])STWS[Aib]RRK(Ac)-NH2 [Relaxin peptide analogue of SEQ ID NO: 39]	8.7 nM	93%
Ac-LEGREKVRAK(Ac)I[Aib][Aib]EGK([TTDS-TTDS-TTDS-γGlu-γGlu-γGlu-Palmitoyl])STW[dS]KRAK(Ac)-NH2 [Relaxin peptide analogue of SEQ ID NO: 44]	2.2 nM	97%
Ac-LEGREKVRAK(Ac)I[Aib][Aib]EGK([AEEA-AEEA-AEEA-AEEA-γGlu-γGlu-γGlu-Stearoyl])STFS[αMeK]RAK(Ac)-NH2 (SMILES CCCCCCCCCCCCCCCCCC(=O)N[C@@H](CCC(=O)N[C@@H](CCC(=O)N[C@@H](CCC(=O)NCCOCCOCC(=O)NCCOCCOCC(=O)NCCOCCOCC(=O)NCCOCCOCC(=O)NCCCC[C@H](NC(=O)CNC(=O)[C@H](CCC(=O)O)NC(=O)C(C)(C)NC(=O)C(C)(C)NC(=O)[C@@H](NC(=O)[C@H](CCCCNC(C)=O)NC(=O)[C@H](C)NC(=O)[C@H](CCCNC(=N)N)NC(=O)[C@@H](NC(=O)[C@H](CCCCN)NC(=O)[C@H](CCC(=O)O)NC(=O)[C@H](CCCNC(=N)N)NC(=O)CNC(=O)[C@H](CCC(=O)O)NC(=O)[C@H](CC(C)C)NC(C)=O)C(C)C)[C@@H](C)CC)C(=O)N[C@@H](CO)C(=O)N[C@H](C(=O)N[C@@H](Cc1ccccc1)C(=O)N[C@@H](CO)C(=O)N[C@@](C)(CCCCN)C(=O)N[C@@H](CCCNC(=N)N)C(=O)N[C@@H](C)C(=O)N[C@@H](CCCCNC(C)=O)C(N)=O)[C@@H](C)O)C(=O)O)C(=O)O)C(=O)O) [Relaxin peptide analogue of SEQ ID NO: 26]	0.43 nM	96%
Ac-LEGREQVRAK(Ac)I[Aib][Aib]EGK([TTDS-TTDS-TTDS-γGlu-γGlu-γGlu-Palmitoyl])STFS[αMeK]RAK(Ac)-NH2 [Relaxin peptide analogue of SEQ ID NO: 25]	28.7 nM	100%
Ac-LEGREKVRAK(Ac)I[Aib][Aib]EGK([AEEA-AEEA-AEEA-AEEA-γGlu-γGlu-γGlu-Palmitoyl])STWS[αMeK]RAK(Ac)-NH2 (SMILES CCCCCCCCCCCCCCCC(=O)N[C@@H](CCC(=O)N[C@@H](CCC(=O)N[C@@H](CCC(=O)NCCOCCOCC(=O)NCCOCCOCC(=O)NCCOCCOCC(=O)NCCOCCOCC(=O)NCCCC[C@H](NC(=O)CNC(=O)[C@H](CCC(=O)O)NC(=O)C(C)(C)NC(=O)C(C)(C)NC(=O)[C@@H](NC(=O)[C@H](CCCCNC(C)=O)NC(=O)[C@H](C)NC(=O)[C@H](CCCNC(=N)N)NC(=O)[C@@H](NC(=O)[C@H](CCCCN)NC(=O)[C@H](CCC(=O)O)NC(=O)[C@H](CCCNC(=N)N)NC(=O)CNC(=O)[C@H](CCC(=O)O)NC(=O)[C@H](CC(C)C)NC(C)=O)C(C)C)[C@@H](C)CC)C(=O)N[C@@H](CO)C(=O)N[C@H](C(=O)N[C@@H](Cc1c[nH]c2ccccc12)C(=O)N[C@@H](CO)C(=O)N[C@@](C)(CCCCN)C(=O)N[C@@H](CCCNC(=N)N)C(=O)N[C@@H](C)C(=O)N[C@@H](CCCCNC(C)=O)C(N)=O)[C@@H](C)O)C(=O)O)C(=O)O)C(=O)O) [Relaxin peptide analogue of SEQ ID NO: 42]	1.5 nM	84%
Ac-LEGREKVRAK(Ac)I[Aib][Aib]EGK([AEEA-AEEA-AEEA-AEEA-AEEA-γGlu-γGlu-γGlu-Palmitoyl])STFS[αMeK]RAK(Ac)-NH2 (SMILES CCCCCCCCCCCCCCCC(=O)N[C@@H](CCC(=O)N[C@@H](CCC(=O)N[C@@H](CCC(=O)NCCOCCOCC(=O)NCCOCCOCC(=O)NCCOCCOCC(=O)NCCOCCOCC(=O)NCCOCCOCC(=O)NCCCC[C@H](NC(=O)CNC(=O)[C@H](CCC(=O)O)NC(=O)C(C)(C)NC(=O)C(C)(C)NC(=O)[C@@H](NC(=O)[C@H](CCCCNC(C)=O)NC(=O)[C@H](C)NC(=O)[C@H](CCCNC(=N)N)NC(=O)[C@@H](NC(=O)[C@H](CCCCN)NC(=O)[C@H](CCC(=O)O)NC(=O)[C@H](CCCNC(=N)N)NC(=O)CNC(=O)[C@H](CCC(=O)O)NC(=O)[C@H](CC(C)C)NC(C)=O)C(C)C)[C@@H](C)CC)C(=O)N[C@@H](CO)C(=O)N[C@H](C(=O)N[C@@H](Cc1ccccc1)C(=O)N[C@@H](CO)C(=O)N[C@@](C)(CCCCN)C(=O)N[C@@H](CCCNC(=N)N)C(=O)N[C@@H](C)C(=O)N[C@@H](CCCCNC(C)=O)C(N)=O)[C@@H](C)O)C(=O)O)C(=O)O)C(=O)O) [Relaxin peptide analogue of SEQ ID NO: 45]	0.45 nM	96%
Ac-LEGREKVRAKI[Aib][Aib]EGK([TTDS-TTDS-TTDS-γGlu-γGlu-γGlu-Palmitoyl])STFS[αMeK]RAK(Ac)-NH2 [Relaxin peptide analogue of SEQ ID NO: 47]	0.64 nM	95%
Ac-LEGREKVRAK(Ac)I[Aib][Aib]EGK([TTDS-TTDS-γGlu-γGlu-γGlu-Palmitoyl])STWS[Aib]RKK(Ac)-NH2 [Relaxin peptide analogue of SEQ ID NO: 4]	1.5 nM	89%
Ac-LEGREKVR[Aib]K(Ac)I[Aib][Aib]EGK([TTDS-TTDS-TTDS-γGlu-γGlu-γGlu-Palmitoyl])STFS[αMeK]RAK(Ac)-NH2 [Relaxin peptide analogue of SEQ ID NO: 29]	1.6 nM	88%
Ac-LEGRE[hLys]VRAK(Ac)I[Aib][Aib]EGK([TTDS-TTDS-TTDS-γGlu-γGlu-γGlu-Palmitoyl])STFS[αMeK]RAK(Ac)-NH2 [Relaxin peptide analogue of SEQ ID NO: 28]	0.62 nM	88%
Ac-LEGRELVRAK(Ac)I[Aib][Aib]EGK([TTDS-TTDS-TTDS-γGlu-γGlu-γGlu-Palmitoyl])STWS[Aib]RRK(Ac)-NH2 [Relaxin peptide analogue of SEQ ID NO: 37]	5.6 nM	98%
LEGREKVRAKIXXEGKSTFSKRAK (Ac-L-E-G-R-E-K-V-R-A-K(Ac)-I-Aib-Aib-E-G-K(PEG2DGA-PEG2DGA-PEG2DGA-gE-gE-gE-Stea)-S-T-F-S-Mly-R-A-K(Ac)-NH2) [Relaxin peptide analogue of SEQ ID NO: 32]	0.1 nM	97%
Ac-LEGREKVRAK(Ac)I[Aib][Aib]EGK([TTDS-TTDS-TTDS-γGlu-γGlu-γGlu-Palmitoyl])STW[Aib]KRAK(Ac)-NH2 [Relaxin peptide analogue of SEQ ID NO: 35]	2.33 nM	91%
